Reference: patent US20160053022A1 (PETER MACCALLUM CANCER INSTITUTE, published 2016)

Legend:
hRYK.Fc = biological target: T1, hRYK.Fc (human, UniProt P34925 26-227); assay: ELISA: immobilized RWD1 probed with hRYK.Fc; the concentration on the axis is that of the RWD1 used for immobilization, the hRYK.Fc concentration of this graph is not given
T1 construct: extracellular domain; also called hRYK.Fc.FLAG; FLAG-tagged hRYK.Fc; not shown: Fc
Method: Purified RWD1 antibody (20 μg) was used in immunoprecipitation experiments, to determine its ability to inhibit hRYK.Fc binding to Wnt3a.Myc5 or Wnt5a.Myc5 (10 μg and 20 μg, respectively; of transfected HEK293T cell lysate). Immunoprecipitations (IP) were performed to pull down hRYK.Fc (250 ng), then immunoblotted (IB) with an anti-Myc tag antibody to detect Wnt binding. Molecular mass standards are shown at the left in kDa. IgG, normal human IgG. (B) ELISA results of immobilized RWD1 antibody probed with hRYK.Fc protein. […] Results represent the mean±standard deviation of two to three independent experiments. IgG, normal human IgG; OD, optical density.
RYK binding was determined by ELISA as described previously (Davydova N, et al., 2011, J Mol Biol 407: 581-593), using bound RWD1 and probed with purified hRYK.Fc. All SPRi analyses were performed at 25° C. using HBST (10 mM HEPES, pH 7.4, 150 mM NaCl, 0.05% (v/v) Tween-20) as the running buffer. A ProteOn XPR36 SPRi biosensor, GLC sensor chips and coupling reagents (10 mM sodium acetate, pH 4.5; sulfo-N-hydroxysuccinimide (SNHS); 1-ethyl-3-(3-dimethylaminopropyl)-carbodiimide hydrochloride (EDC); and ethanolamine) were purchased from Bio-Rad Laboratories. All antibodies and ligands used for kinetic analysis were buffer exchanged with PBS. Immobilizations were performed at 30 μl/min on the GLC chip. […]

hRYKWD.Fc [1] = biological target: T2, hRYKWD.Fc (human, UniProt P34925 66-194, limits assumed); assay: SPRi (ProteOn XPR36, GLC chip), RWD1 immobilized, hRYKWD.Fc injected at 31.25-500 nM, 25 °C, global 1:1 Langmuir fit with mass transfer
T2 construct: domain: WIF domain; also called hRYKWD.Fc.FLAG; fusion protein containing the human RYK WIF domain; not shown: Fc region of human IgG1
Method: (§1) RYK binding was determined by ELISA as described previously (Davydova N, et al., 2011, J Mol Biol 407: 581-593), using bound RWD1 and probed with purified hRYK.Fc. All SPRi analyses were performed at 25° C. using HBST (10 mM HEPES, pH 7.4, 150 mM NaCl, 0.05% (v/v) Tween-20) as the running buffer. A ProteOn XPR36 SPRi biosensor, GLC sensor chips and coupling reagents (10 mM sodium acetate, pH 4.5; sulfo-N-hydroxysuccinimide (SNHS); 1-ethyl-3-(3-dimethylaminopropyl)-carbodiimide hydrochloride (EDC); and ethanolamine) were purchased from Bio-Rad Laboratories. All antibodies and ligands used for kinetic analysis were buffer exchanged with PBS. Immobilizations were performed at 30 μl/min on the GLC chip. Prior to immobilization, chips were preconditioned with two sequential 10 sec pulses of 50 mM NaOH, 100 mM HCl and 0.5% SDS, followed by equilibration with HBST. For surface activation, 0.4 M EDC and 0.1 M SNHS were each diluted 50-fold in water and mixed together to give a final composition of 8 mM EDC in 2 mM SNHS. Separate vertical channels were activated with 150 μl of the EDC/SNHS mixture. IgGs for immobilization (RWD1 antibody and normal human IgG (R&D Systems; control)) were diluted to 50 μg/ml in 10 mM acetate, pH 4.5, and coupled (3×150 μl) along separate vertical channels followed by an injection of ethanolamine (150 μl) to block the reaction spots. […]

hRYKWD.Fc [2] = biological target: T2, hRYKWD.Fc; assay: SPRi (ProteOn XPR36, GLC chip), RWD1 immobilized, hRYKWD.Fc injected at 31.25-500 nM, 25 °C; calculated from ka and kd
Method: as §1

T2 sequence (P34925 66-194 limits assumed): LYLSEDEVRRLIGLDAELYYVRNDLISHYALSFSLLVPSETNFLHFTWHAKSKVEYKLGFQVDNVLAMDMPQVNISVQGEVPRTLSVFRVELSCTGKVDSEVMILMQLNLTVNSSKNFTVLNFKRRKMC
T1 sequence (P34925 26-227): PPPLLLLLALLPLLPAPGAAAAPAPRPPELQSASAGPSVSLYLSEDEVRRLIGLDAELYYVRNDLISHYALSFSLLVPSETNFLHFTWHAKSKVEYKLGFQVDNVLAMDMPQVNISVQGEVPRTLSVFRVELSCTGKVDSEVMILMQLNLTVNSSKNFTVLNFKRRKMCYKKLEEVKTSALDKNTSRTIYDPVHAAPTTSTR

EC50 (read off the curve) (hRYK.Fc): ~5 µg/mL
koff (hRYKWD.Fc [1]): 0.00037 s⁻¹
kon (hRYKWD.Fc [1]): 88000 M⁻¹ s⁻¹
Kd (hRYKWD.Fc [2]): 4.2 nM
B1: RWD1 (antibody, human IgG1, kappa, V domains shown)
VH: EVQLLESGGGLVQPGGSLRLSCAASGFTFSSYAMSWVRQAPGKGLEWVSLIHKAGHTTQYADSVKGRFTISRDNSKNTLYLQMNSLRAEDTAVYYCAKGYRHFDYWGQGTLVTVSS
VL: DIQMTQSPSSLSASVGDRVAITCRASQSISSYLNWYQQKPGKAPKLLIYRASNLQSGVPSRFSGSGSGTDFTLTISSLQPEDFATYYCQQAVGSPRTFGQGTKVEIKR
notes: Variable regions of scFv3 grafted onto a human IgG1 gamma heavy chain and human kappa light chain; fully human monoclonal antibody; also called RWD1 antibody
